Biological target: Pyruvate kinase M2 (PKM2), endogenous (human (endogenous in HeLa and HCT116)) (UniProt P14618)
Assay: cross-linking; cell or tumor tissue lysate in PBS with 0.1% Triton X-100; 4 ug protein crosslinked with 0.025% glutaraldehyde for 2 min at 37 C, stopped with Tris-HCl pH 8.0 50 mM; SDS-PAGE and WB with anti-PKM2; cells with HITT overexpression or KD, HITT fragments, miR-106, FBP; HCT116 xenografts

Chain of Pyruvate kinase M2 (PKM2), endogenous, P14618 1-531 (enzyme; other documents disagree on this pair) (P14618 whole entry): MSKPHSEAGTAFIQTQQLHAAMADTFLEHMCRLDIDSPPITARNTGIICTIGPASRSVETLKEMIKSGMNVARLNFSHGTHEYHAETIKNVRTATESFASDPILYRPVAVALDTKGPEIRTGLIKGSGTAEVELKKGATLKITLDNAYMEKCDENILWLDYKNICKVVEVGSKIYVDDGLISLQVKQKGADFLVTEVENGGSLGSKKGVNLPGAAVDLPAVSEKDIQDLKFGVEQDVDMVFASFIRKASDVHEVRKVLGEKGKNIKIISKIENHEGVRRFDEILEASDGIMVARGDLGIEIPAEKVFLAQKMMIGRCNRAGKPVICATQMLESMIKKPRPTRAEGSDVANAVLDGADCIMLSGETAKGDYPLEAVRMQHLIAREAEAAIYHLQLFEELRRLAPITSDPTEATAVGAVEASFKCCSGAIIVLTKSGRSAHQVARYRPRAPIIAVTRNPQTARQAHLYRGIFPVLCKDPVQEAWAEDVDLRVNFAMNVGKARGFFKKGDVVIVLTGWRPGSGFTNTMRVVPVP

- stoichiometry N: 2
Substance: Pyruvate kinase M2 (PKM2), endogenous, P14618 1-531 (enzyme; other documents disagree on this pair)
